Source: US8329186B2, “Treatment of inflammation using BST2 inhibitor” (Isu Abxis Co., Ltd, priority 2004, dated 2012)

Experiments:
mouse model of asthma = test: Ovalbumin-induced mouse model of asthma: infiltrating cells in bronchoalveolar lavage; type: in vivo; settings: ovalbumin-sensitized mice
Procedure: (§1) A mouse model of asthma was prepared by sensitizing mice (C57B6, 8 weeks) with ovalbumin. In detail, mice were initially sensitized for five continuous days by intranasal injection of ovalbumin. After three weeks, mice were intranasally sensitized again with ovalbumin for five continuous days. One week after the secondary sensitization, mice were challenged intranasally with ovalbumin three times every 24 hrs to induce asthma. Herein, a Bst2 decoy was intravenously injected into mice 30 min before sensitization with ovalbumin, and was injected into mice 30 min before the first sensitization and the last injection of ovalbumin. Three days after the last injection, serum samples, lung tissues, and the like were collected from mice.
A mouse model of asthma was prepared as described in Example 8-1.
The effect of Bst2 decoy-Fc fusions on immune cell infiltration was assessed as described in Example 8-2. When ovalbumin-sensitized mice were treated with a Bst2 decoy, the total number of infiltrating cells was decreased and, especially, the number of neutrophils, eosinophils and lymphocytes except for macrophage was decreased in bronchoalveolar lavage (BAL) (FIG. 27).
A mouse model of asthma was prepared as described in Example 8-1. The effect of anti-Bst2/Damp1 antibodies on immune cell infiltration was assessed as described in Example 8-2. […]

IL-4, IL-5 and IL-13 = test: Ovalbumin-induced mouse model of asthma: cytokines in lung tissue (immunoblot); type: in vivo; settings: ovalbumin-sensitized asthmatic mice
Procedure: as §1
When a Bst2 or Damp1 decoy was injected into a mouse model of asthma which was induced by sensitization and challenge with ovalbumin, expression levels of cytokines (interleukin-4 (IL-4), interleukin-5 (IL-5) and interleukin-13 (IL-13)) were measured as follows. […] The bound primary antibodies were detected with a HRP-conjugated secondary antibody (anti-rabbit HRP-conjugated IgG) using ECL reagent.
Expression of 11-4, IL-5 and IL-13 was measured in the murine asthma model as described in Example 8-3 after injection with Bst2 decoy or Bst2 decoy Fc fusion proteins.

[1] = system: TNCB-induced contact hypersensitivity; test: TNCB-induced contact hypersensitivity in mice; type: in vivo, Balb/c mice
Procedure: To evaluate efficacy of Bst2 decoy on allergic dermatitis, contact hypersensitivity was induced by repeated application of 2,4,6-trinitro-1-chlorobenzene (TNCB) in Balb/c mice. The mice were initially sensitized with 0.2 ml of 1% TNCB solution on day 0, Subsequent challenges of 0.2 ml of 0.2% TNCB solution was applied to the shaved backs of the animals 2-3 times per week from week 2 to week 6. By the end of week 6, all animal developed lesions on the dorsal skin treated with TNCB solution (FIGS. 40A-40C).
During week 7, 5 daily doses of Bst2 decoy were administered at 10 mg/kg to the animals by intravenous injection, and the animals were sacrificed for observation at the end of week 7.
H&E staining was performed on exposed skin sections.

[2] = system: OVA-induced atopic dermatitis; test: OVA-induced atopic dermatitis model in mice; type: in vivo, BALB/c mice
Procedure: An experimental model of atopic dermatitis based on immunity against ovalbumin (OVA) was utilized to test Bst2 decoy for efficacy in atopic dermatitis. BALB/c mice were immunized at the beginning of weeks 1, 2, and 3 with intraperitoneal injections of OVA/ALUM. During week 4, an OVA-soaked patch was applied to the shaved backs of the animals. The patches were removed and 5 daily doses of Bst2 decoy was administered to the animal by intravenous injections of 10 mg/kg during week 5. OVA-soaked patches were applied again to the animals over week 6 and the animals were sacrificed for evaluation at the beginning of week 7 (FIG. 43).
Serum was prepared from blood sample collected from the sacrificed animals. OVA-specific IgE levels were determined by ELISA assays in which OVA was coated on the plate, OVA-specific immunoglobulin present in the serum samples allowed to blind, and IgE levels ascertained utilizing anti-IgE specific antibodies.

TNF-alpha, IL-6, HMGB-1 = test: CLP sepsis model: plasma inflammatory proteins (ELISA); type: in vivo, rat
Text: (§2) A rat model of sepsis was induced through cecal ligation and puncture (CLP) as described previously (Wichterman K A, Baue A E, Chaudry I H: Sepsis and septic shock-a review of laboratory models and a proposal. J Surg Res 29:189-201, 1980). An incision was made along the midline of the abdomen on an anesthetized animal. The cecum was exteriorized, ligated and punctured with a stainless steel needle. An appropriate amount of fecal matter was then extruded. The gauge of the needle, number of punctures and amount of fecal matter extruded are all factors in determining the severity of sepsis and mortality. […] The incision was sutured and appropriate post-operative care was administered. Sham-operated animals were subjected to similar laparotomy and intestinal manipulation, however, the cecum was neither ligated nor punctured. Immediately or 6 hours after the CLP procedure, animals were given intravenous injection of vehicle or a Bst2 decoy.
Blood samples were collected at 1, 3, 6, 18 and 24 hours post-CLP. Plasma levels of representative inflammatory response proteins were measured using ELISA kits; TNF-alpha(BD Biosciences, San Diego, Calif.) and IL-6(BD Biosciences, San Diego, Calif.) at 1, 3, and 6 hours, HMGB-1 (Shino-Test Corp., Japan) at 18 and 24 hours. Typically, after CLP in rodents, TNF-alpha spikes at 3 hours and IL-6 spikes at 6 hours.

CLP sepsis = CLP sepsis model: tissue and organ damage; type: in vivo, rat
Text: as §2
Blood enzyme levels were measured at 6, 12, and 24 hours post-CLP (FIG. 49A-49D). Organ damage, as indicated by increased levels of alanine aminotransferase (ALT), aspartate aminotransferase (AST), blood urea nitrogen (BUN) and creatinine, was evident in all animals that underwent the CLP procedure.

B1: Bst2 decoy: soluble Bst2 protein fragment having the amino acid sequence of SEQ ID NO:1; extracellular region of human Bst2, six-histidine tag (protein)
chain: NSEACRDGLRAVMECRNVTHLLQQELTEAQKGFQDVEAQAATCNHTVMALMASLDAEKAQGQKKVEELEGEITTLNHKLQDASAEVERLRRENQVLSVRIADKKYYPSSQDHHHHHH
Mouse model of asthma
  number of infiltrating cells in bronchoalveolar lavage (total, neutrophils, eosinophils, lymphocytes): remarkably decreased
IL-4, IL-5 and IL-13
  cytokine levels (IL-4, IL-5, IL-13) in lung tissue: decreased with increasing doses
[1]; 10 mg/kg intravenous, 5 daily doses during week 7, vs vehicle alone
  recovery from TNCB-induced skin lesions: recovered much quicker
[1]; TNCB-treated mice
  H&E staining of exposed skin sections: near-normal morphology with little signs of inflammation
[2]; 10 mg/kg intravenous, 5 daily doses during week 5, end of week 6
  formation of lesions after OVA-soaked patch: little if any formation of lesions
[2]; ELISA
  serum OVA-specific IgE levels: substantial reduction
[2]; to a level similar to the negative control group
  inflammation in H&E stained skin sections: marked decrease in inflammation
TNF-alpha, IL-6, HMGB-1; 1, 3 and 6 hours post-CLP
  plasma IL-6 spike: substantially suppressed
  plasma TNF-alpha response: virtually absent
TNF-alpha, IL-6, HMGB-1; 18 and 24 hours post-CLP
  plasma HMGB-1: reducing both the amount and rate of increase
CLP sepsis; 6, 12 and 24 hours post-CLP
  blood levels of ALT, AST, BUN and creatinine: near-normal level
CLP sepsis; 24 post-CLP
  H&E staining of liver, kidney and lung sections: protective effects against organ damage
